Patent publication US20210087556

Legend:
[1] = target: FLAG-tag-labeled human SMAD3, expressed in LL29 cells from expression vector pEZ-M11 Flag-hSmad3 (UniProt P84022)
[2] = target: GST-fusion SMAD3 protein (Sigma-Aldrich Co. LLC.) (UniProt P84022)
Sequence of GST-fusion SMAD3 protein (Sigma-Aldrich Co. LLC.) (P84022 whole entry, looked up, the tested form may be a part): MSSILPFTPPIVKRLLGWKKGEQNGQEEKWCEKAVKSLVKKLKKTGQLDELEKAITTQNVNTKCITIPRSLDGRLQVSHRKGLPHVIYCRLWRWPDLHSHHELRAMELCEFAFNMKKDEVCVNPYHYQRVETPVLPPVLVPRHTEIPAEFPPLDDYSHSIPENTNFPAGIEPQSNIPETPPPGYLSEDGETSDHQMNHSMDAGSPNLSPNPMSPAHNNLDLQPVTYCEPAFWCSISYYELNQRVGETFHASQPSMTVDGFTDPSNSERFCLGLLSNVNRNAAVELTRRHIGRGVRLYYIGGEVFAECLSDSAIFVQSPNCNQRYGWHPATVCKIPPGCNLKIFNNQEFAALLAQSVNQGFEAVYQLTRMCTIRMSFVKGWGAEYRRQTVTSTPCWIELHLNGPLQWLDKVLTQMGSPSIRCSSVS

Sequence of His-fusion NEK6 protein (Eurofins Scientific SE) (chain, as listed by the source): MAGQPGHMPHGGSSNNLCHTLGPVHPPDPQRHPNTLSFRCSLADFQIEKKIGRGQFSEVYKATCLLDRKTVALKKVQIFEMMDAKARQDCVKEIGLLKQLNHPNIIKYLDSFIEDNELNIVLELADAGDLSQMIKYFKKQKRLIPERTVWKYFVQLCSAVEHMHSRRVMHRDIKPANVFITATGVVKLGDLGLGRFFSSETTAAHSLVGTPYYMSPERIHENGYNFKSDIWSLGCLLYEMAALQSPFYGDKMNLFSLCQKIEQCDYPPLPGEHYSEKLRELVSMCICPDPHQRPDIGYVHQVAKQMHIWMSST
Sequence of FLAG-tag-labeled human SMAD3, expressed in LL29 cells from expression vector pEZ-M11 Flag-hSmad3 (P84022 whole entry, looked up, the tested form may be a part): as the sequence (P84022 whole entry, looked up, the tested form may be a part) above

Substance	amount of phosphorylated SMAD3 protein (Western blot of anti-FLAG coimmunoprecipitate) [1]	amount of phosphorylated SMAD3 (Western blot after in vitro kinase reaction with purified proteins) [2]
human NEK6 protein (NIMA-related serine/threonine kinase 6), expressed in LL29 cells from expression vector pEZ-M02 Nek6	transfection of a human NEK6 expression vector caused the amount of phosphorylated SMAD3 protein to be elevated	
His-fusion NEK6 protein (Eurofins Scientific SE)		By using NEK6 protein, the amount of phosphorylated SMAD3 was elevated.
